B1: 25-nt cis-element mutation 6 (ssRNA)
RNA: CUUCCGCCCGCUCCCGCUCGCUUCC
B2: 25-nt hnRNP-E1 mRNA 5'-UTR cis-element (ssRNA)
RNA: CUCCCGCCCGCUCCCGCUCGCUCCC

Legend:
[1] = biological target: hnRNP-E1 (PCBP1) wild-type (Homo sapiens, UniProt Q15365 SEQ:1-356); assay: EMSA; 15 uM L-homocysteine; complete quenching of signal; details: tags: GST fusion (pGEX-4T-1, E. coli BL21)
hnRNP-E1(G292A) = hnRNP-E1(G292A) (Homo sapiens, UniProt Q15365 SEQ:1-356, G292A); assay: no L-homocysteine; Scatchard; no gel-shift signal in this condition (FIG. 1B); details: tags: GST fusion (pGEX-4T-1, E. coli BL21); label: 35S
Procedure: (§1) Specific binding was determined by subtracting values of non-specific binding with GST from those of total binding with GST-hnRNP-E1; (however, in Table 1 and FIG. 6G, non-specific binding using bovine serum albumin (BSA) was subtracted from total binding to GST-hnRNP-E1 to determine specific binding). The K_D was calculated from a Scatchard plot using GraphPad Prism 6 from GraphPad Software (San Diego, Calif.), as previously described in the art.

hnRNP-E1(C293S) = hnRNP-E1(C293S) (Homo sapiens, UniProt Q15365 SEQ:1-356); assay: no L-homocysteine; Scatchard; details: tags: GST fusion (pGEX-4T-1, E. coli BL21); label: 35S
Procedure: as §1

Chain of hnRNP-E1(G292A) (Q15365 whole entry A205V/G292A, the tested form may be a part): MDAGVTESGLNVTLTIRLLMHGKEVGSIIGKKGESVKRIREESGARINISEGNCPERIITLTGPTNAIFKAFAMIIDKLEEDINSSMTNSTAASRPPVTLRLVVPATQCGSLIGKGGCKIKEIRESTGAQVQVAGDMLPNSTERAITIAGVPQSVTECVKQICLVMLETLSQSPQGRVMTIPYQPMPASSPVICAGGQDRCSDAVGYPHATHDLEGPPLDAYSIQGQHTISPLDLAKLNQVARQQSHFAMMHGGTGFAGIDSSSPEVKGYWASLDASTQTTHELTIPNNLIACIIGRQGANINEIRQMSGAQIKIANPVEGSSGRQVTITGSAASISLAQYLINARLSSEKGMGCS
Chain of hnRNP-E1(C293S) (Q15365 whole entry A205V/C293S, the tested form may be a part): as the sequence (Q15365 whole entry A205V/G292A, the tested form may be a part) above, with A292G, C293S counted along it
Chain of hnRNP-E1 (PCBP1) wild-type (Q15365 whole entry A205V, the tested form may be a part): as the sequence (Q15365 whole entry A205V/G292A, the tested form may be a part) above, with A292G counted along it

Binder	binding result [1]	Kd (hnRNP-E1(G292A)) [nM]	Kd (hnRNP-E1(C293S)) [nM]
B1	no binding		
B2		2.02	0.39
